From patent US20210017279A1 (NANJING LEGEND BIOTECH, published 2021) come the findings set out here.

First the molecules themselves.
B1: BLP-19 (bispecific antibody, human IgG4 S228P, kappa)
heavy: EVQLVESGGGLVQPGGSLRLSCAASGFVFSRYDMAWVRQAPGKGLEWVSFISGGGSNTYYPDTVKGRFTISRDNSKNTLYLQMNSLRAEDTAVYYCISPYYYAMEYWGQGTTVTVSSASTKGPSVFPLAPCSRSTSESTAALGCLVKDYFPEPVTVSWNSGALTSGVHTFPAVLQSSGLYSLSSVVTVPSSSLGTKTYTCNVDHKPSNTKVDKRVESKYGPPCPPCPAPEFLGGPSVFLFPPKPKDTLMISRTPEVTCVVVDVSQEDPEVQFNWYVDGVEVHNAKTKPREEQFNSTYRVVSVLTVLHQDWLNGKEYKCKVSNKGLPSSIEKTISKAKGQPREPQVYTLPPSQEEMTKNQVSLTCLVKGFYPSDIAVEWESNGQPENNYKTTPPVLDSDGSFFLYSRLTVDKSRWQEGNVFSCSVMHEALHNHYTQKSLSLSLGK
light: EVQLVESGGGLVQPGGSLRLSCAASGYTYGGYCMGWFRQAPGKGLEGVSTINSDGSTNYADSVKGRFTISRDNSKNTLYLQMNSLRAEDTAVYYCAVDLAPCWVAGPIEAADFGYWGQGTLVTVSSEPKSSDKTHTSPPSPDIQMTQSPSSVSASVGDRVTITCKASQDVDTAVAWYQQKPGKAPKLLIYWASTRHTGVPSRFSGSGSGTDFTLTISSLQPEDFATYYCQQYSTFPWTFGGGTKVEIKRTVAAPSVFIFPPSDEQLKSGTASVVCLLNNFYPREAKVQWKVDNALQSGNSQESVTEQDSKDSTYSLSSTLTLSKADYEKHKVYACEVTHQGLSSPVTKSFNRGEC
notes: also called PD-1 x LAG-3 BABP
B2: BLP-2 (bispecific antibody, human IgG4 S228P, kappa)
heavy: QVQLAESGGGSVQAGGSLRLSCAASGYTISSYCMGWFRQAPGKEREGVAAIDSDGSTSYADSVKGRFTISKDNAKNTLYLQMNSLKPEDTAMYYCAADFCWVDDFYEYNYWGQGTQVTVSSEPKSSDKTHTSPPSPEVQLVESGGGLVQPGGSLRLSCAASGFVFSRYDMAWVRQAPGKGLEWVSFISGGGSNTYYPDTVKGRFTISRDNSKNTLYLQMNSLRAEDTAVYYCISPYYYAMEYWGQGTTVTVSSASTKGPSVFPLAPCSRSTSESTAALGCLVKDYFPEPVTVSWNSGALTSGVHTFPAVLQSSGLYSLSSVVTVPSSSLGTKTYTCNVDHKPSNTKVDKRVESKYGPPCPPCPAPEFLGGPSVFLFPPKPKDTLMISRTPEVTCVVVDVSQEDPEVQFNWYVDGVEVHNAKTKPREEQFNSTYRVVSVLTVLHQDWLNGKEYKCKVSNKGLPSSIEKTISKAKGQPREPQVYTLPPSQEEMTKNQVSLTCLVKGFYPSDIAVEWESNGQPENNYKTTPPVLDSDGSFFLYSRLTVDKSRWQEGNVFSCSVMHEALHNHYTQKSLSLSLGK
light: DIQMTQSPSSVSASVGDRVTITCKASQDVDTAVAWYQQKPGKAPKLLIYWASTRHTGVPSRFSGSGSGTDFTLTISSLQPEDFATYYCQQYSTFPWTFGGGTKVEIKRTVAAPSVFIFPPSDEQLKSGTASVVCLLNNFYPREAKVQWKVDNALQSGNSQESVTEQDSKDSTYSLSSTLTLSKADYEKHKVYACEVTHQGLSSPVTKSFNRGEC
notes: also called PD-1 x LAG-3 proof-of-concept BABP
B3: BLP-4 (bispecific antibody, human IgG4 S228P, kappa)
heavy: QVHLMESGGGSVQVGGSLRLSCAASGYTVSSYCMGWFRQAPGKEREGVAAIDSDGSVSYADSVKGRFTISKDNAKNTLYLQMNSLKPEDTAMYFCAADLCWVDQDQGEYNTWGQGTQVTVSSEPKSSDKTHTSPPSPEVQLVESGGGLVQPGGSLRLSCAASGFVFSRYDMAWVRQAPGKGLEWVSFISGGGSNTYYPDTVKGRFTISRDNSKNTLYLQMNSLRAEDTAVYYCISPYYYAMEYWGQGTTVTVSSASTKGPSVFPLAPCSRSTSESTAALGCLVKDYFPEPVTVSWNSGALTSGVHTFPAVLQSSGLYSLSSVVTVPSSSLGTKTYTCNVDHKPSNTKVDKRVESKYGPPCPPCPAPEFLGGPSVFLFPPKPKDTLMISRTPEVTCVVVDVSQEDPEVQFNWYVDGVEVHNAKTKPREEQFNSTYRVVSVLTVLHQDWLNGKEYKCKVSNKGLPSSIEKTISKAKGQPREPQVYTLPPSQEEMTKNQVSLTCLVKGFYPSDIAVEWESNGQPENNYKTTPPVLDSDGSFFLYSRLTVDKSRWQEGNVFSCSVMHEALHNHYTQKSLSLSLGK
light: B2 light
notes: as for B2
B4: BLP-3 (bispecific antibody, human IgG4 S228P, kappa)
heavy: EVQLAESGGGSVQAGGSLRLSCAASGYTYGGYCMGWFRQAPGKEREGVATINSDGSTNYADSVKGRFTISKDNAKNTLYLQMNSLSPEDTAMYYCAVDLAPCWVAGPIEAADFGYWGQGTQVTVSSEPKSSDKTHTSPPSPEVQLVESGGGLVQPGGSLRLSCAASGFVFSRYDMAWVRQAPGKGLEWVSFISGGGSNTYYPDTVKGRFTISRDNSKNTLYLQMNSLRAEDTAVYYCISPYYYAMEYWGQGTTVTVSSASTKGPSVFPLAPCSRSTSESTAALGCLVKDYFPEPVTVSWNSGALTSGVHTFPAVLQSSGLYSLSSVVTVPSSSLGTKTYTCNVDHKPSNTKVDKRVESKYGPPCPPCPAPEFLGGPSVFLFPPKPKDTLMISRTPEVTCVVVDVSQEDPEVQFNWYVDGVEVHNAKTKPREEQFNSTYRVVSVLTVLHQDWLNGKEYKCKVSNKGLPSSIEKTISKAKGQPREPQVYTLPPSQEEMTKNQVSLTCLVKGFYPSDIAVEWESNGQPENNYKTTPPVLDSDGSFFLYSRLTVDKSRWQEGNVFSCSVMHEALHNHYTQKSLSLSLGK
light: B2 light
notes: as for B2
B5: BLP-34 (bispecific antibody, human IgG4 S228P, kappa)
heavy: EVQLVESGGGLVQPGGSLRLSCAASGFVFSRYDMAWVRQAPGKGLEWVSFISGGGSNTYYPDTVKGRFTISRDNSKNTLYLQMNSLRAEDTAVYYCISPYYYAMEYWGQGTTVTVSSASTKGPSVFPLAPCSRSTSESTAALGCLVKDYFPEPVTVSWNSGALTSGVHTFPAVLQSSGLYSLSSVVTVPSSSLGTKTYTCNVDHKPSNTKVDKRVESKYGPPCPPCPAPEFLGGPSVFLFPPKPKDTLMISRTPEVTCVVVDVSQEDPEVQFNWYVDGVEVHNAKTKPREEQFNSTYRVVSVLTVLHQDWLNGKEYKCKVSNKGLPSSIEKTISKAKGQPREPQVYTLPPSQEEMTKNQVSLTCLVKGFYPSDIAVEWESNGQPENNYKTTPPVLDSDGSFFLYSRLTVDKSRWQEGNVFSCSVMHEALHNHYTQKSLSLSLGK
light: EPKSSDKTHTSPPSPEVQLVESGGGLVQPGGSLRLSCAASGYIISSYCMGWFRQAPGKGLEGVAAIDSDGGTSYADSVKGRFTISKDNSKNTLYLQMNSLRAEDTAMYYCAADFCWVDEDRHLYEYNSWGQGTLVTVSSDIQMTQSPSSVSASVGDRVTITCKASQDVDTAVAWYQQKPGKAPKLLIYWASTRHTGVPSRFSGSGSGTDFTLTISSLQPEDFATYYCQQYSTFPWTFGGGTKVEIKRTVAAPSVFIFPPSDEQLKSGTASVVCLLNNFYPREAKVQWKVDNALQSGNSQESVTEQDSKDSTYSLSSTLTLSKADYEKHKVYACEVTHQGLSSPVTKSFNRGEC
notes: also called PD-1 x LAG-3 BABP
B6: BLP-38 (bispecific antibody, human IgG4 S228P, kappa)
heavy: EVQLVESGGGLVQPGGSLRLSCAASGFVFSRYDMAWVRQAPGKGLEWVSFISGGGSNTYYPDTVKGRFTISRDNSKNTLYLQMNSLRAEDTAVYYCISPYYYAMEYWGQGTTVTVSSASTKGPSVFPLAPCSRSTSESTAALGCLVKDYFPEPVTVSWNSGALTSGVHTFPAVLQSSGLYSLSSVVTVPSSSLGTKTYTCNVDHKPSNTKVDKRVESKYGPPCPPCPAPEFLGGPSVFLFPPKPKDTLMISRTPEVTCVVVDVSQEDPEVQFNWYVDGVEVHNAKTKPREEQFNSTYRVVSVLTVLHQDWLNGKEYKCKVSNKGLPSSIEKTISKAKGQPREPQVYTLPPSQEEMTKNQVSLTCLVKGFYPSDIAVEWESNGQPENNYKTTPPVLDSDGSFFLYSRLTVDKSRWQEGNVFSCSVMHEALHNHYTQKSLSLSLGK
light: EPKSSDKTHTSPPSPEVQLVESGGGLVQPGGSLRLSCAASGYTVSSYCMGWFRQAPGKGREGVSAIDSDGSVSYADSVKGRFTISKDNSKNTLYLQMNSLRAEDTAVYFCAADLCWVDQDQGEYNTWGQGTLVTVSSDIQMTQSPSSVSASVGDRVTITCKASQDVDTAVAWYQQKPGKAPKLLIYWASTRHTGVPSRFSGSGSGTDFTLTISSLQPEDFATYYCQQYSTFPWTFGGGTKVEIKRTVAAPSVFIFPPSDEQLKSGTASVVCLLNNFYPREAKVQWKVDNALQSGNSQESVTEQDSKDSTYSLSSTLTLSKADYEKHKVYACEVTHQGLSSPVTKSFNRGEC
notes: also called PD-1 x LAG-3 BABP
B7: BLP-15 (bispecific antibody, human IgG4 S228P, kappa)
heavy: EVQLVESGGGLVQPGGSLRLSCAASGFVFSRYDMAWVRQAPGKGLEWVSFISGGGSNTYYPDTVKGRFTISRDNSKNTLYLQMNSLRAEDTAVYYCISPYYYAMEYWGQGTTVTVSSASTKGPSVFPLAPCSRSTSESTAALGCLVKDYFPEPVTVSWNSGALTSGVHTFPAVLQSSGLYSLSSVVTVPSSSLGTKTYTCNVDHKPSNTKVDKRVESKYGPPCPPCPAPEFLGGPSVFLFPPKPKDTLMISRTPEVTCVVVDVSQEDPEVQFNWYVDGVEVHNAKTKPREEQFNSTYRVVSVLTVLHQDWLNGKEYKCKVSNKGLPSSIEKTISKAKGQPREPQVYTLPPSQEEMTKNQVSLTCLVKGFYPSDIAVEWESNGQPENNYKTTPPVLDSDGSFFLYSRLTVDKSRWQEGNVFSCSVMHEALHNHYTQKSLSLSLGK
light: EVQLVESGGGLVQPGGSLRLSCAASGYTVSSYCMGWFRQAPGKGREGVSAIDSDGSVSYADSVKGRFTISKDNSKNTLYLQMNSLRAEDTAVYFCAADLCWVDQDQGEYNTWGQGTLVTVSSEPKSSDKTHTSPPSPDIQMTQSPSSVSASVGDRVTITCKASQDVDTAVAWYQQKPGKAPKLLIYWASTRHTGVPSRFSGSGSGTDFTLTISSLQPEDFATYYCQQYSTFPWTFGGGTKVEIKRTVAAPSVFIFPPSDEQLKSGTASVVCLLNNFYPREAKVQWKVDNALQSGNSQESVTEQDSKDSTYSLSSTLTLSKADYEKHKVYACEVTHQGLSSPVTKSFNRGEC
notes: also called PD-1 x LAG-3 BABP
B8: PD1-BM-min (antibody, human IgG4 S228P, kappa, V domains shown)
VH: EVQLVESGGGLVQPGGSLRLSCAASGFVFSRYDMAWVRQAPGKGLEWVSFISGGGSNTYYPDTVKGRFTISRDNSKNTLYLQMNSLRAEDTAVYYCISPYYYAMEYWGQGTTVTVSS
VL: DIQMTQSPSSVSASVGDRVTITCKASQDVDTAVAWYQQKPGKAPKLLIYWASTRHTGVPSRFSGSGSGTDFTLTISSLQPEDFATYYCQQYSTFPWTFGGGTKVEIKR
notes: Full-length anti-PD-1 antibody, parental element of the BLP constructs; also called PD-BM-min; anti-PD-1 full-length antibody
B9: Pembrolizumab (antibody, human IgG4 S228P, kappa, V domains shown)
VH: QVQLVQSGVEVKKPGASVKVSCKASGYTFTNYYMYWVRQAPGQGLEWMGGINPSNGGTNFNEKFKNRVTLTTDSSTTTAYMELKSLQFDDTAVYYCARRDYRFDMGFDYWGQGTTVTVSS
VL: EIVLTQSPATLSLSPGERATLSCRASKGVSTSGYSYLHWYQQKPGQAPRLLIYLASYLESGVPARFSGSGSGTDFTLTISSLEPEDFAVYYCQHSRDLPLTFGGGTKVEIKR

Values joined by “and” are separate entries in the source; they are usually repeats but may differ in a detail not shown here. Identical values can stand only once.

The target in one experiment is LAG-3 on Thaw-and-Use LAG-3 Effector cells. Briefly: cell-based or functional assay.
As to B1, the “LAG-3 blockade reporter assay EC50” value is 1.57 nM.

For the molecule B2, the “LAG-3 blockade reporter assay EC50” value was 2.04 nM.

As to B3, the “LAG-3 blockade reporter assay EC50” value was 1.85 nM.

Consider B4, for which the “LAG-3 blockade reporter assay EC50” value is 1.45 nM.

Regarding B5, the “LAG-3 blockade reporter assay EC50” value was found to be 15.8 nM.

Turning to B6, the “LAG-3 blockade reporter assay EC50” value came out at 3.83 nM.

Turning to B7, the “LAG-3 blockade reporter assay EC50” value was found to be 5.12 nM.

The target in the next experiment is PD-1 in the PD-1 cell based reporter assay. Briefly: cell-based or functional assay.
As for B8, the “PD-1 cell based reporter assay EC50” value is 1.34 nM and 1.21 nM.

On to B9, for which the “PD-1 cell based reporter assay EC50” value is 1.15 nM.

As to B1, the “PD-1 cell based reporter assay EC50” value was 3.65 nM.

B2: the “PD-1 cell based reporter assay EC50” value was 5.14 nM.

In the case of B3, the “PD-1 cell based reporter assay EC50” value was 5.94 nM.

In the case of B4, the “PD-1 cell based reporter assay EC50” value stood at 5.92 nM.

For B5, the “PD-1 cell based reporter assay EC50” value amounted to 2.77 nM.

Take B6: the “PD-1 cell based reporter assay EC50” value amounted to 1.25 nM.

As to B7, the “PD-1 cell based reporter assay EC50” value turned out to be 3.32 nM.

The target in the next experiment is T1, Human PD-1 (human, UniProt Q15116 25-167, limits assumed). Briefly: SPR (Biacore T200), as in Example 3; Experiment 1.
T1 sequence (Q15116 25-167 limits assumed): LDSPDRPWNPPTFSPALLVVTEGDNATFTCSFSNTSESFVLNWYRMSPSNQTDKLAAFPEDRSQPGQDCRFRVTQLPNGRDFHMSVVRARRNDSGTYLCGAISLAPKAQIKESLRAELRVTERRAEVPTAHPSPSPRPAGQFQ
Molecule B8 displayed a Kd of 1.4 nM.

Turning to B2, the affinity, expressed as Kd, was 4.4 nM.

B3 gave a Kd of 4.5 nM.

In turn, B4 gave a Kd of 2 nM.

A further experiment addresses T2, Human LAG-3-His (human, UniProt P18627 29-450).
T2 construct: Bought recombinant protein; also called Human LAG-3 protein (Acrobiosystem, 772-6BGF2-D5); not shown: His tag
T2 sequence: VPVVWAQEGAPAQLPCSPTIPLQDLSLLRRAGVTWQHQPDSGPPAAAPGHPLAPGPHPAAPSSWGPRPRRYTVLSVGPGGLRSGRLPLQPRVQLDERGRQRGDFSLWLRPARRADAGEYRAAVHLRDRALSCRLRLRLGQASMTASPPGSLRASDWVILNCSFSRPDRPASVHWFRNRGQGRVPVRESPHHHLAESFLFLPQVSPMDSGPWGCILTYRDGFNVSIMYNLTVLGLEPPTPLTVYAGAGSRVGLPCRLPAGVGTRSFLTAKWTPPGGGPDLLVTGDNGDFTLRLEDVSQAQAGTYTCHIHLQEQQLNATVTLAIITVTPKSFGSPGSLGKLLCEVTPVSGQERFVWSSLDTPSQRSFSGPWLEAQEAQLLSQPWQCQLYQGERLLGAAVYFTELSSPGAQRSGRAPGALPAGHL
The experiment can be described thus: SPR (Biacore T200), as in Example 3; Experiment 2.
B1 had a Kd of 1.4 nM.

As for B5, the equilibrium dissociation constant (Kd) turned out to be 3.7 nM.

The next experiment concerns the target T1, Human PD-1. Briefly: SPR (Biacore T200), as in Example 3; Experiment 2.
Take B8: the equilibrium dissociation constant (Kd) stood at 2.3 nM.

As to B1, binding was put at a Kd of 4 nM.

B5 showed a Kd of 3.1 nM.

In turn, B6 displayed a Kd of 2.5 nM.

B7 came in with a Kd of 4.4 nM.

For a further experiment, the target named is T3, PD-1 expressed on CHO cells (UniProt Q15116 25-288, limits assumed).
T3 construct: whole, on cells; also called CHO-PD-1 cells
T3 sequence (Q15116 25-288 limits assumed): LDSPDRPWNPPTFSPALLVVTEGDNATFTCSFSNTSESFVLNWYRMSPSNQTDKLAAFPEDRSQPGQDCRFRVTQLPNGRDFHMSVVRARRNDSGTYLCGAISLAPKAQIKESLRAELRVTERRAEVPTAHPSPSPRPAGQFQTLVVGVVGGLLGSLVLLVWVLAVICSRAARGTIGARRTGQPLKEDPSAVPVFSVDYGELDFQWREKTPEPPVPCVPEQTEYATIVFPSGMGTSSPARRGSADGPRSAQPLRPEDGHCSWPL
Briefly: flow cytometry on CHO cells expressing PD-1; Experiment 1.
Molecule B8 displayed an EC50 of 2.44 nM.

B2: the EC50 was found to be 4.29 nM.

In the case of B3, the EC50 was found to be 3.51 nM.

On to B4, for which the EC50 was found to be 4.64 nM.

The target in another experiment is T3, PD-1 expressed on CHO cells. Briefly: flow cytometry on CHO cells expressing PD-1; Experiment 2.
Take B8: it took 6.27 nM to reach a half-maximal effect (EC50).

Molecule B1 had an EC50 of 14.6 nM.

Molecule B5 showed an EC50 of 12.5 nM.

In turn, B6 registered an EC50 of 8.51 nM.

The molecule B7 had an EC50 of 13.7 nM.

Another experiment deals with T4, human LAG-3 expressed on CHO-K1 cells (human, UniProt P18627 29-525).
T4 construct: also called CHO-huLAG-3 cells; LAG-3 expressed on CHO cells
T4 sequence: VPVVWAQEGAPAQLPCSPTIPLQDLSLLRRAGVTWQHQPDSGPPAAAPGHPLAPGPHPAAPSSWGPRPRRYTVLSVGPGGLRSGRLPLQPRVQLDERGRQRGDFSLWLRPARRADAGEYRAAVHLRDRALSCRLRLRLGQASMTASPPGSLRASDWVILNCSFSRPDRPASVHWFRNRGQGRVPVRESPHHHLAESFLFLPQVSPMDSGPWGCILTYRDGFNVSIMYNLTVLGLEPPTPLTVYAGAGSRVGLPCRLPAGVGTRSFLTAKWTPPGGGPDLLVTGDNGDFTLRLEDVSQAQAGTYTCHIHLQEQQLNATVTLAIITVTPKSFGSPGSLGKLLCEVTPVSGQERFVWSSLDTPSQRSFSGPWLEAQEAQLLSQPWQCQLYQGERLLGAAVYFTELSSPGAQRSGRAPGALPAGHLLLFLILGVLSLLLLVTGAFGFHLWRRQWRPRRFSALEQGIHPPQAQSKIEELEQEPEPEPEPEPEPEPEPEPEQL
Briefly: flow cytometry on CHO cells expressing LAG-3; Experiment 2. How it is done: To determine cell binding EC₅₀, CHO-K1 cells expressing human or cynomolgus LAG-3 were harvested and incubated with anti-LAG-3 sdAb-Fc fusion proteins at gradient concentrations, followed by fluorophore-labeled secondary antibodies against human Fc. […] The samples were then analyzed with flow cytometry. The binding and blocking curves were shown in FIG. 4 and FIG. 5, respectively.
In turn, B1 came in with an EC50 of 13.5 nM.

For B5, the half-maximal effective concentration (EC50) was found to be 3.12 nM.

The target of another experiment is T3, PD-1 expressed on CHO cells. The experiment can be described thus: flow cytometry competition; blocks PD-L1 binding to CHO-PD-1 cells; Experiment 1.
In the case of B8, the EC50 came to 1.72 nM.

For the molecule B2, the EC50 came to 3.2 nM.

For the molecule B3, the EC50 is 2.58 nM.

The molecule B4 had an EC50 of 4.38 nM.

Another experiment has the same target. Briefly: flow cytometry competition; blocks PD-L1 binding to CHO-PD-1 cells; Experiment 2.
Molecule B8 registered an EC50 of 9.56 nM.

In turn, B1 yielded an EC50 of 21 nM.

Molecule B5 returned a concentration giving a half-maximal response (EC50) of 13.8 nM.

Consider B6, for which the response was half-maximal at 12.4 nM (EC50).

With B7, the EC50 came to 18.5 nM.

Another experiment addresses T5, LAG-3-Fc (human, UniProt P18627 29-450, biotinylated (in the blocking assays)).
T5 construct: Recombinant LAG-3-Fc (Acrobiosystems / R&D Systems); also called biotinylated LAG-3-Fc protein; not shown: Fc part
T5 sequence: T2 sequence
The experiment can be described thus: flow cytometry competition; blocks LAG-3-Fc binding to MHC II on A375 cells; Experiment 2.
The molecule B1 displayed a 50% effective concentration (EC50) of 44.6 nM.

B5: the response was half-maximal at 37.1 nM (EC50).
